{"source": "patent US10344330B2", "about": "“Glatiramer acetate response biomarker mRNA potency assay” (Mylan Inc., priority 2013, dated 2019)", "key": {"[1]": {"system": "IL-1b secreted by LN cells", "test": "IL-1b secretion by GA-stimulated LN cells, MSD 9-plex ELISA (Example II)", "type": "cell-based, mouse", "settings": "21 hr", "procedure": "(§1) Animals at 8 weeks of age were immunized by injection into four footpads using a 1 mL syringe with a 27-G, 1⁄2-inch needle. […] Ten days post-immunization, immunized animals were sacrificed via cervical dislocation. […] The LN cells were isolated by pressing the LN with the plunger end of a sterile syringe. […] Trypan blue exclusion method was used to determine the cell density of viable cells in the suspension. […] Cat. […] LN cells were plated into a 24-well tissue culture plate for drug stimulation. […] Cell debris was removed by centrifugation at ca. 200×g for 10 minutes at 4° C. Cytokines secreted by treated cells were determined on the day of collection by ELISA using mouse TH 1/TH 2 9-Plex Tissue Culture Kit (Meso Scale Discovery; Cat No. […]-2, Lot #: K0032839) which detects Th1 cytokines (IFN-γ, IL-2, IL-12, IL-1β, TNF-α, CXCL1) and Th2 cytokines (IL-4, IL-5 and IL-10). For IFN-γ, culture media also were assayed at 45 hours using mouse IFN-γ Tissue Culture Kit (Meso Scale Discovery; Cat No. […] For the positive control, 0.5 mL of LN cells (5×10^6 cells/well) were treated with 0.5 mL of ConA (5 μg/mL). For the negative control, 0.5 mL of LN cells (5×10^6 cells/well) were treated with 0.5 mL of MBP (20 μg/mL). The LN cells with mock stimulation (enriched DCCM1 medium) were used to monitor the background level of a cytokine. For the cytokine assays, calibration standards or samples were incubated in the MULTI-SPOT or the SINGLE-SPOT plate and each cytokine bound to its corresponding capture antibody. All test samples were run in duplicate. The amount of each cytokine on its distinct spot was quantified using a cytokine-specific detection antibody labeled with MSD SULFO-TAGTM reagent. Electrochemiluminescent signals from immobilized SULFO-TAGTM-labeled complexes on each spot from each well were captured by the MSD SECTOR Imager 6000, which produces a signal directly proportional to the amount of captured cytokine in a test sample. The levels of cytokines in test samples were derived by interpolation from calibration curves with calibration standards of known concentrations using reagents provided with the MSD kits. Kits were used according to the manufacturer's protocols. […] Data are expressed as a response ratio of cytokine concentration in treated cell medium to control DCCM1 medium."}, "[2]": {"system": "mouse IL-10 mRNA in primary LN cells", "test": "Validation: mouse IL-10 mRNA by real-time PCR in LN cells of GA-immunized SJL/J mice (Example IV)", "type": "cell-based", "settings": "for IL-10 mRNA Fold Change: normalized to GAPDH", "procedure": "Three experiments were conducted using one batch of GA (Mylan GMA). The primary LN cells were stimulated by incubation with 6 concentrations (0.3 to 20 μg/mL) of the GA for 6 hours at 37° C. Total RNA was isolated from LN cells stimulated with GA or controls. cDNA was synthesized from the RNA and the mRNA levels of seven mouse cytokines, IL-2, IL-4, IL-5, IL-10, IL-13, interferon (IFN)-γ and tumor necrosis factor (TNF)-α, were quantitatively measured by a real-time PCR method.\nFemale SJL/J mice at 8-9 weeks of age were immunized by injection into four footpads using a 1 mL syringe with a 27-G, ½-inch needle. Each mouse received a total injection volume of 0.1 mL of GMA emulsified in CFA (about 10 μL into each of the front footpads and 40 μL into each of the hind footpads). Animals were immunized on Day 0. After injection, animals were placed back in their cages and housed ≤6 animals per cage.\nImmunized animals were sacrificed by cervical dislocation on Day 10 following immunization. […] After centrifugation at about 200×g for 10 minutes at 4° C., the cell pellet was re-suspended in 40 mL of DCCM-1 medium for cell counting. A Trypan blue exclusion method was used to determine the cell density of viable cells in the suspension. After cell counting, the LN cells were suspended in enriched DCCM-1 medium at density of 7.5×10^6 cells/mL. LN cells (0.12 mL) were plated into each well of 96-well tissue culture plates.\nDilutions of GA (Mylan GMA) were prepared using enriched DCCM-1 medium as the diluent. GA dilutions (0.12 mL) were added in the assigned wells of 96-well tissue culture plates. The same volume of LN cells (0.12 mL) isolated from immunized animals was added to the assigned wells. A positive control and a negative control were always performed in the same assay by treating LN cells with 2.5 μg/mL ConA and 10 μg/mL MBP, respectively. The LN cells with mock stimulation protocols (enriched DCCM-1 medium) were used to monitor the background mRNA level of a cytokine. The plates were incubated at 37° C. in a humidified 5% CO2 incubator for 6 hr.\nAt the end of incubation time, culture medium from stimulated cells was removed by aspiration and the cells were lysed using Qiagen or Promega lysis buffer. The lysate was transferred to an RNeasy Mini column (Qiagen) or wells of the SV 96 Binding Plate (Promega) for RNA isolation and cDNA synthesis. All tested samples were run in triplicate.\nThe SV 96 Total RNA Isolation System (Promega; Cat. No. Z3505) was used for total RNA isolation. Assay procedures were carried out according to each manufacturer's protocol. RNA samples were stored at −70° C. until use. […] The assay procedure was carried out according to the manufacturer's protocol.\nThe plate was centrifuged at 2000 rpm for 2 minutes at 4° C. to spin down the contents and eliminate air bubbles. Samples were prepared and run in a 96-well plate using a Life Technologies Real-Time PCR system (previously Applied Biosystems; Model No. 7500) according to the manufacturer's recommendation. The mix for the reference gene was prepared in the same way using the reference gene primer.\nA relative quantitation method was used to analyze changes in mIL-2, mIL-4, mIL-5, mIL-10, mIL-13, mIFN-γ and TNF-α expression in GA treated samples relative to the untreated control (Enriched DCCM-1 treated) samples using the following program:\nLevels of mouse cytokine amplicons were normalized to an internal probe level (GAPDH) from the same samples. The following equations were used to calculate the relative increase in response to GA stimulation compared to the control sample (Enriched DCCM1 sample): […]"}, "[3]": {"system": "IL-2 secreted by LN cells", "test": "IL-2 secretion by GA-stimulated LN cells, MSD 9-plex ELISA (Example II)", "type": "cell-based, mouse", "settings": "21 hr", "procedure": "as §1"}, "[4]": {"settings": "BALB/cByJ, immunized Mannitol Intraplantar"}, "[5]": {"settings": "C57BL10J, immunized GA Intraplantar"}, "[6]": {"settings": "C57BL10J, immunized Mannitol Intraplantar"}, "[7]": {"settings": "CD-1, immunized GA Intraplantar"}, "[8]": {"settings": "CD-1, immunized Mannitol Intraplantar"}, "[9]": {"settings": "BALB/cByJ, immunized GA Intraplantar"}}}
{"molecule": "Concanavalin A [ConA, reference compound]", "values": [{"measurement": "IL-1b secretion response ratio (treated cell medium to control DCCM1 medium)", "setting": "[1]; [4]", "result": 7.83}, {"measurement": "IL-1b secretion response ratio (treated cell medium to control DCCM1 medium)", "setting": "[1]; [5]", "result": 2.21}, {"measurement": "IL-1b secretion response ratio (treated cell medium to control DCCM1 medium)", "setting": "[1]; [6]", "result": 1.40}, {"measurement": "IL-1b secretion response ratio (treated cell medium to control DCCM1 medium)", "setting": "[1]; [7]", "result": 8.50}, {"measurement": "IL-1b secretion response ratio (treated cell medium to control DCCM1 medium)", "setting": "[1]; [8]", "result": 3.37}, {"measurement": "IL-10 mRNA Fold Change", "setting": "[2]; Experiment 1, 2.5 μg/mL", "result": 1.2, "unit": "fold"}, {"measurement": "IL-10 mRNA Fold Change", "setting": "[2]; Experiment 2, 2.5 μg/mL", "result": 0.5, "unit": "fold"}, {"measurement": "IL-10 mRNA Fold Change", "setting": "[2]; Experiment 3, 2.5 μg/mL", "result": 1.6, "unit": "fold"}, {"measurement": "IL-2 secretion response ratio (treated cell medium to control DCCM1 medium)", "setting": "[3]; [9]", "result": 229.32}, {"measurement": "IL-2 secretion response ratio (treated cell medium to control DCCM1 medium)", "setting": "[3]; [4]", "result": 281.66}, {"measurement": "IL-2 secretion response ratio (treated cell medium to control DCCM1 medium)", "setting": "[3]; [6]", "result": 28.71}, {"measurement": "IL-2 secretion response ratio (treated cell medium to control DCCM1 medium)", "setting": "[3]; [7]", "result": 85.01}, {"measurement": "IL-2 secretion response ratio (treated cell medium to control DCCM1 medium)", "setting": "[3]; [8]", "result": 68.22}]}
{"molecule": "MBP: myelin basic protein, a negative control (protein, UniProt P02686 1-304, looked up) Myelin basic protein: MGNHAGKRELNAEKASTNSETNRGESEKKRNLGELSRTTSEDNEVFGEADANQNNGTSSQDTAVTDSKRTADPKNAWQDAHPADPGSRPHLIRLFSRDAPGREDNTFKDRPSESDELQTIQEDSAATSESLDVMASQKRPSQRHGSKYLATASTMDHARHGFLPRHRDTGILDSIGRFFGGDRGAPKRGSGKDSHHPARTAHYGSLPQKSHGRTQDENPVVHFFKNIVTPRTPPPSQGKGRGLSLSRFSWGAEGQRPGFGYGGRASDYKSAHKGFKGVDAQGTLSKIFKLGGRDSRSGSPMARR", "values": [{"measurement": "IL-1b secretion response ratio (treated cell medium to control DCCM1 medium)", "setting": "[1]; [4]", "result": 0.87}, {"measurement": "IL-1b secretion response ratio (treated cell medium to control DCCM1 medium)", "setting": "[1]; [5]", "result": 0.99}, {"measurement": "IL-1b secretion response ratio (treated cell medium to control DCCM1 medium)", "setting": "[1]; [6]", "result": 0.92}, {"measurement": "IL-1b secretion response ratio (treated cell medium to control DCCM1 medium)", "setting": "[1]; [7]", "result": 1.37}, {"measurement": "IL-1b secretion response ratio (treated cell medium to control DCCM1 medium)", "setting": "[1]; [8]", "result": 1.20}, {"measurement": "IL-10 mRNA Fold Change", "setting": "[2]; Experiment 1, 10 μg/mL", "result": 1.1, "unit": "fold"}, {"measurement": "IL-10 mRNA Fold Change", "setting": "[2]; Experiment 2, 10 μg/mL", "result": 0.7, "unit": "fold"}, {"measurement": "IL-10 mRNA Fold Change", "setting": "[2]; Experiment 3, 10 μg/mL", "result": 1.0, "unit": "fold"}, {"measurement": "IL-10 mRNA expression level in response to MBP treatment", "setting": "[2]; SJL/J, MBP 10 μg/mL, all PCR runs", "result": "≤ 2", "unit": "fold"}, {"measurement": "IL-2 secretion response ratio (treated cell medium to control DCCM1 medium)", "setting": "[3]; [9]", "result": 0.97}, {"measurement": "IL-2 secretion response ratio (treated cell medium to control DCCM1 medium)", "setting": "[3]; [4]", "result": 0.97}, {"measurement": "IL-2 secretion response ratio (treated cell medium to control DCCM1 medium)", "setting": "[3]; [6]", "result": 0.98}, {"measurement": "IL-2 secretion response ratio (treated cell medium to control DCCM1 medium)", "setting": "[3]; [7]", "result": 0.98}, {"measurement": "IL-2 secretion response ratio (treated cell medium to control DCCM1 medium)", "setting": "[3]; [8]", "result": 1.28}]}
